Source: PMC12152876 (The Journal of Biological Chemistry, 2025)

Target: the molecule itself
Experiment: cross-linking

B1: Ebola virus nucleoprotein (NP), wild type, expressed for DSP cross-linking (natural protein)
chain: MDSRPQKIWMAPSLTESDMDYHKILTAGLSVQQGIVRQRVIPVYQVNNLEEICQLIIQAFEAGVDFQESADSFLLMLCLHHAYQGDYKLFLESGAVKYLEGHGFRFEVKKRDGVKRLEELLPAVSSGKNIKRTLAAMPEEETTEANAGQFLSFASLFLPKLVVGEKACLEKVQRQIQVHAEQGLIQYPTAWQSVGHMMVIFRLMRTNFLIKFLLIHQGMHMVAGHDANDAVISNSVAQARFSGLLIVKTVLDHILQKTERGVRLHPLARTAKVKNEVNSFKAALSSLAKHGEYAPFARLLNLSGVNNLEHGLFPQLSAIALGVATAHGSTLAGVNVGEQYQQLREAATEAEKQLQQYAESRELDHLGLDDQEKKILMNFHQKKNEISFQQTNAMVTLRKERLAKLTEAITAASLPKTSGHYDDDDDIPFPGPINDDDNPGHQDDDPTDSQDTTIPDVVVDPDDGSYGEYQSYSENGMNAPDDLVLFDLDEDDEDTKPVPNRSTKGGQQKNSQKGQHIEGRQTQSRPIQNVPGPHRTIHHASAPLTDNDRRNEPSGSTSPRMLTPINEEADPLDDADDETSSLPPLESDDEEQDRDGTSNRTPTVAPPAPVYRDHSEKKELPQDEQQDQDHTQEARNQDSDNTQSEHSFEEMYRHILRSQGPFDAVLYYHMMKDEPVVFSTSDGKEYTYPDSLEEEYPPWLTEKEAMNEENRFVTLDGQQFYWPVMNHKNKFMAILQHHQ
  stoichiometry N: 2
